Measurements published in PMC8691596 (PLoS ONE, 2021).

B1: cynomolgus monkey FcγRI extracellular domain, C-terminal hexa-His (receptor)
chain: QVDTTKAVITLQPPWVSVFQEETVTLQCEVPRLPGSSSTQWFLNGTATQTSTPSYRITSASVKDSGEYRCQRGPSGRSDPIQLEIHRDWLLLQVSSRVFTEGEPLALRCHAWKDKLVYNVLYYQNGKAFKFFYRNSQLTILKTNISHNGAYHCSGMGKHRYTSAGVSVTVKELFPAPVLNASVTSPLLEGNLVTLSCETKLLLQRPGLQLYFSFYMGSKTLRGRNTSSEYQILTARREDSGFYWCEATTEDGNVLKRSPELELQVLGLQLPTPVWLH
B2: cynomolgus monkey FcγRIIa extracellular domain, C-terminal hexa-His (receptor)
chain: KAVLKLEPPWINVLREDSVTLTCGGAHSPDSDSTQWFHNGNLIPTHTQPSYRFKANNNDSGEYRCQTGRTSLSDPVHLTVLSEWLALQTTHLEFREGETIMLRCHSWKDKPLIKVAFFQNGKSKKFSHMNPNFSIPQANHSHSGDYHCTGNIGYTPYSSKPVTITVQGLSSLVPSVGSSSPTG
B3: cynomolgus monkey FcγRIIb extracellular domain, C-terminal hexa-His (receptor)
chain: TPAAPPKAVLKLEPPWINVLREDSVTLTCGGAHSPDSDSTQWFHNGNLIPTHTQPSYRFKANNNDSGEYRCQTGRTSLSDPVHLTVLSEWLALQTPHLEFREGETIMLRCHSWKDKPLIKVTFFQNGKSKKFSHMDPNFSIPQANHSHSGDYHCTGNIGYTPYSSKPVTITVQVP

Target: T1, anti-CD20 IgG1 L234S/L235T/G236R (human)
T1 construct: rituximab VH, as in m1; human IgG1 constant region; as the light chain of m1; also called 2–52; variant 52; source: HEK293, transient, purified (Protein A)
Assay: SPR; antibody captured by biotin-labelled anti-human κ light chain on streptavidin CM5; soluble Fcγ receptor injected at one concentration (12.5 nM to 18 μM); HBS-EP+ pH 7.4, 25°C; Biacore 8K
Settings: both partners purified

Which response does the source give for B1 here?
Its response is under 1 RU.

How did the response turn out when B2 was run?
The response was under 1 RU.

B3 was tested. Which response did it give?
The response was under 1 RU.
